Among the data in patent US20070134249A1 (GENITOPE, published 2007) are grade values, retold here.

Experiment in all cases: ELISA
The target of one assay is T1, 645.
T1 construct: H3-74 L2-14; also called PIN645
Set-up: key to grade: 0 = <0.5 OD, 1 = 0.5-1.0 OD, 4 = 1-4 OD. The source says:
(§1) Before specificity screening, all of the clonal immunogen-positive hybridoma supernatants were re-screened on the immunogen, a non-family member Id protein, and KLH, if animals were immunized with Id protein that has been conjugated KLH. As described above, this screen identifies HC-specific clones but not mAbs against the light chain constant region. Clones identified positive to the immunogen and KLH were […]. Those found positive to the immunogen but not to the non-family member Id protein or KLH were tittered on the immunogen. In addition to normalizing for different binding affinities and concentrations, each hybridoma supernatant was titered on the fully human form of the Id protein used as the immunogen(s) for the V regions. The titer or dilution resulting in an ELISA absorbance of 2.5 to 3 OD after 30 min. incubation time was then used. Hybridoma specificity was determined by screening against available Id proteins expressing the same HV and KV or LV as well as different HV, KV and LV. The final ELISA results are expressed as follows: 0 (<0.5 OD), 1 (0.5-1.0 OD), or 4 (1-4 OD). Positive hybridoma supernatants are categorized according to specificity: anti-Id, anti-constant region (HC, KC or LC), or V region (HV, KV, LV family or family member).
(§2) In general, the fully human Id protein or proteins containing the immunogen V regions were coated onto 96-well ELISA plates at 2.5-5 ug/mL in carbonate buffer pH 9.6 and incubated at 4° C. for up to 14 days. On the day of the ELISA, plates were brought to RT and blocked with Tris-Tween-20, pH 7.6 for 15-60 min. at RT. Following a NaCl and Triton X-100 wash, diluted hybridoma cell culture supernatants were incubated overnight at 4° C. Hybridoma supernatant dilutions ranged from 1:2 to 1:25 and were prepared in PBS with 5% BSA. Plates were washed and incubated with HRP-conjugated goat anti-mouse IgG-specific detecting antibody. A chromogenic substrate (TMB) was used to measure the amount of mouse antibody bound to each well. The reaction was stopped at or before 30 minutes with IN H2SO4 and plates were read immediately. Absorbency readings at 450 nm ranging between 0-4 OD and using Molecular Devices plate reader and SOFTMAX PRO software.

Another assay has as its target T2, 552.
T2 construct: H1-18 L2-8; also called PIN552
Set-up: key to grade: 0 = <0.5 OD, 1 = 0.5-1.0 OD, 4 = 1-4 OD.
From the text: as §1, §2

The target in a further assay is T3, 164.
T3 construct: H4-39 L2-14; also called PIN164
More on the design: key to grade: 0 = <0.5 OD, 1 = 0.5-1.0 OD, 4 = 1-4 OD.
From the text: as §1, §2

The target in a further assay is T4, 857.
T4 construct: H5-51 L2-14; also called PIN857
More on the design: key to grade: 0 = <0.5 OD, 1 = 0.5-1.0 OD, 4 = 1-4 OD.
From the text: as §1, §2

Assay [1] addresses T5, PIN574 fully human Id protein (HV4-39 / LV1-40) (human).
T5 construct: Recombinant patient-derived idiotype immunoglobulin used as antigen, fully human form; also called Immunogen (for 20H5); not shown: human immunoglobulin heavy chain constant region, isotype G3 (HCG3); human immunoglobulin lambda light chain constant region (LC)
Set-up: key to grade: 0 = <0.5 OD, 1 = 0.5-1.0 OD, 4 = 1-4 OD.
From the text: as §1, §2

For a further assay, the target named is T6, 762.
T6 construct: H3-7 L3-10; also called PIN762
Set-up: key to grade: 0 = <0.5 OD, 1 = 0.5-1.0 OD, 4 = 1-4 OD.
From the text: as §1, §2

For the next assay, the target named is T7, 231.
T7 construct: H3-48 L2-14; also called PIN231
Set-up: key to grade: 0 = <0.5 OD, 1 = 0.5-1.0 OD, 4 = 1-4 OD.
From the text: as §1, §2

The next assay has as its target T8, 534.
T8 construct: H3-11 L1-47; also called PIN534
More on the design: key to grade: 0 = <0.5 OD, 1 = 0.5-1.0 OD, 4 = 1-4 OD.
From the text: as §1, §2

The next assay has as its target T9, 844.
T9 construct: H3-7 K4-1; also called PIN844
Set-up: key: 0 = <0.5 OD, 1 = 0.5-1.0 OD, 4 = 1-4 OD.
From the text: as §1, §2

Assay [2] has as its target T10, PIN185 fully human Id protein (human).
T10 construct: Patient-derived idiotype immunoglobulin used as control antigen in SPR
More on the design: key: 0 = <0.5 OD, 1 = 0.5-1.0 OD, 4 = 1-4 OD.
From the text: as §1, §2

The target in a further assay is T11, 953.
T11 construct: H5-51 K4-1; also called PIN953
More on the design: key: 0 = <0.5 OD, 1 = 0.5-1.0 OD, 4 = 1-4 OD.
From the text: as §1, §2

For another assay, the target named is T12, 839.
T12 construct: H3-23 K4-1; also called PIN839
More on the design: key: 0 = <0.5 OD, 1 = 0.5-1.0 OD, 4 = 1-4 OD.
From the text: as §1, §2

The target of another assay is T13, 950.
T13 construct: H4-59 K4-1; also called PIN950
More on the design: key: 0 = <0.5 OD, 1 = 0.5-1.0 OD, 4 = 1-4 OD.
From the text: as §1, §2

The next assay addresses T14, 805.
T14 construct: H3-7 K3-11; also called PIN805
Set-up: key: 0 = <0.5 OD, 1 = 0.5-1.0 OD, 4 = 1-4 OD.
From the text: as §1, §2

In another assay the target is T15, 898.
T15 construct: H3-15 K4-1; also called PIN898
Set-up: key: 0 = <0.5 OD, 1 = 0.5-1.0 OD, 4 = 1-4 OD.
From the text: as §1, §2

Another assay deals with T16, 659.
T16 construct: H3-21 K4-1; also called PIN659
Set-up: key: 0 = <0.5 OD, 1 = 0.5-1.0 OD, 4 = 1-4 OD.
From the text: as §1, §2

Another assay addresses T17, 763.
T17 construct: H4-59 K4-1; also called PIN763
Set-up: key: 0 = <0.5 OD, 1 = 0.5-1.0 OD, 4 = 1-4 OD.
From the text: as §1, §2

For another assay, the target named is T18, 952.
T18 construct: H3-66 K4-1; also called PIN952
Set-up: key: 0 = <0.5 OD, 1 = 0.5-1.0 OD, 4 = 1-4 OD.
From the text: as §1, §2

The next assay deals with T19, 987.
T19 construct: H3-23 K4-1; also called PIN987
More on the design: key: 0 = <0.5 OD, 1 = 0.5-1.0 OD, 4 = 1-4 OD.
From the text: as §1, §2

T5 sequence (VH, as listed by the source, chain 1 of 2): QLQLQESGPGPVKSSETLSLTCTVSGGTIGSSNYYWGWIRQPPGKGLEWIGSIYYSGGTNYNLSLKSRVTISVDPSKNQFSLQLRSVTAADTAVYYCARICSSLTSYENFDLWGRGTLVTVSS
T5 sequence (VL, as listed by the source, chain 2 of 2): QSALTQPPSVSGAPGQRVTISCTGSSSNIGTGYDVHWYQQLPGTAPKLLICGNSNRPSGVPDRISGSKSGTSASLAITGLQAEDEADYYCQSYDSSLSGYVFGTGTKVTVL

B1: mAb clone 4H11 (antibody, V domains shown)
VH: EVKLVESGGGLVKPGGSLKLSCAASGFAFSNYDMSWVRQTPEKRLEWVATIRSDDSYTYYPDSVKGRFTISRDNARNTLYLQMSSLRSEDTAFYYCARREGNYAMDYWGQGTSVTVSS
VL: DIQMTQSPASLSVSVGETVTITCRASENIYSYLAWYQQKKGKSPQLLVYAATNLGDGVPTRFSGSGSGTQYSLKINSLQSEDFGSYYCQHFWGNPLTFGAGTKLELKR
notes: Mouse hybridoma mAb
Turning to B1, the grade was found to be 1 with 645; 4 with 552; 4 with 164; 4 with 857; 4 in assay [1]; 4 in the assay with 762. Further, the grade with 231 and with 534 was 4 in each case.

B2: mAb clone 12C3 (antibody, V domains shown)
VH: EVKLVESGGGLVQPGGSLSLSCAASGFTYTDYYMNWVRQPPGKALEWLALIRNKANGYTTEYSASLKGRFTISRDNSQSILYLQMNALRAEDSATYYCVRENINYYFDYWGQGTTLTVSS
VL: DIVLTQSPASLAVSLGQRATISCRASESVEYFGASLMQWYQQKSGQPPKLLIRAATNVESGVPARFSGSGSGTDFSLNIHPVEEDDIAMYFCQQSRKVPWTFGGGTKLEIKR
notes: Mouse hybridoma mAb, fusions 20/21 (PIN628 V regions)
As for B2, the grade (with 844; in assay [2]; with 953; with 839; with 950; with 805) was 4 throughout. Also, the grade in the assay with 898, with 659, with 763, with 952 and with 987 was 4 each time.
